Source: paper PMC6783867

Target: 10th and 11th cadherin repeat domains of the Plutella xylostella cadherin (PxCR10–11), GST-tagged (Plutella xylostella)
Experiment: BLI; Octet Red 96; GST-tagged PxCR10–11 loaded onto anti-GST biosensors; toxin 38.5 to 576.9 nM in solution; 400 s association, 400 s dissociation; 10 mM GSH, 50 mM Tris, pH 8.0; 1:1 binding model

Substance	Kd [nM]
Cry2Ab–AVM bioconjugate (Cry2Ab30 conjugated with 4''-O-succinyl avermectin)	3.44
Cry2Ab–AVMd (Cry2Ab30 conjugated with 4'',5-O-succinyl avermectin)	71.9
